Measurements taken from patent US20160068605A1.
Like-named read-outs stand apart in the source and are kept apart here.

Columns and labels:
[1] = biological target: IL3RA-PK (CD123 tagged with ProLink) in HEK293 IL3RA-PK/CSF2RB-EA cells (UniProt P26951)
[2] = biological target: human CD123 SP1 ECD displayed on pDisplay-transfected cells (human) (UniProt P26951); assay: MSD-CAT, hCD123 cells, assay-2
[3] = biological target: IL3RA-PK (CD123 tagged with ProLink) in HEK293 IL3RA-PK/CSF2RB-EA cells (UniProt P26951); remark: listed apart in the source
[4] = biological target: endogenous CD123 on human leukaemia cells (OCI-AML5, TF-1) (human) (UniProt P26951); assay: MSD cell binding assay on OCI-AML5 cells (endogenous CD123)
[5] = biological target: cyno CD123 ECD displayed on pDisplay-transfected cells (cynomolgus monkey); assay: MSD-CAT, cynoCD123 cells, assay-2
Chain of cyno CD123 ECD displayed on pDisplay-transfected cells (cynomolgus monkey) (chain, as listed by the source): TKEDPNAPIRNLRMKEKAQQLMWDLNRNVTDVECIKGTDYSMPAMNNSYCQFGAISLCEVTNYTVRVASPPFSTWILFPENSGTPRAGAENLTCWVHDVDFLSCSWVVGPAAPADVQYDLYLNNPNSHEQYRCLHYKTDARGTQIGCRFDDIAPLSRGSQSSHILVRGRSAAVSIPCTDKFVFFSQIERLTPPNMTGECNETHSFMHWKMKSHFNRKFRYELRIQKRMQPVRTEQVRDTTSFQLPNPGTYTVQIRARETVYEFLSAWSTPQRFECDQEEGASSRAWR

Chain of endogenous CD123 on human leukaemia cells (OCI-AML5, TF-1) (human) (P26951 19-378): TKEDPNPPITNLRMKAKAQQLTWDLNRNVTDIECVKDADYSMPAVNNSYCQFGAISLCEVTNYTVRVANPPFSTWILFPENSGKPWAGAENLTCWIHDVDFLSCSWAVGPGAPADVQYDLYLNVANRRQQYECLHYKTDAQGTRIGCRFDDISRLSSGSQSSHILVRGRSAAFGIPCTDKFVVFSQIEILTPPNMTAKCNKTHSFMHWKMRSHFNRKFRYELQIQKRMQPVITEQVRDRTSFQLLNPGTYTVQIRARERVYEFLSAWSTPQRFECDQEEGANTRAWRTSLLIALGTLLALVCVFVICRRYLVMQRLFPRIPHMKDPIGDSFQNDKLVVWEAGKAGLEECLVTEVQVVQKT
Chain of human CD123 SP1 ECD displayed on pDisplay-transfected cells (human) (P26951 20-305): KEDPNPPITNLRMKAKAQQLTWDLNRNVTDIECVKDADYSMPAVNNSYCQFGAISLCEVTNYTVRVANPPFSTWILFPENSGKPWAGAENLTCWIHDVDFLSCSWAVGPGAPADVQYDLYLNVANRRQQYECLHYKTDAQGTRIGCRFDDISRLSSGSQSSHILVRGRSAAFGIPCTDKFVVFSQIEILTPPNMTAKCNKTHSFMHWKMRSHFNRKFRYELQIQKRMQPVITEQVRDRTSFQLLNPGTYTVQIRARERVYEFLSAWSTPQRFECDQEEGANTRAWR

B1: 7G3 (antibody, from another filing, V domains shown)
VH: EVQLQQSGPELVKPGASVKMSCKASGYTFTDYYMKWVKQSHGKSLEWIGDIIPSNGATFYNQKFKGKATLTVDRSSSTAYMHLNSLTSEDSAVYYCTRSHLLRASWFAYWGQGTLVTVSA
VL: DFVMTQSPSSLTVTAGEKVTMSCKSSQSLLNSGNQKNYLTWYLQKPGQPPKLLIYWASTRESGVPDRFTGSGSGTDFTLTISSVQAEDLAVYYCQNDYSYPYTFGGGTKLEIKR
IC50 (read off the curve): IL-3-induced CD123/CD131 heteromerization (RLU) [1]: 0.05 µg/mL
Kd [2]: 0.154 nM
IC50 (read off the curve): IL-3-induced CD123/CD131 heteromerization (RLU) [3]: 0.2 µg/mL
EC50 (read off the curve) [4]: 7 µg/mL
Kd [5]: 0.057 nM
